Source: the DeepSol protein solubility set

Experiment: soluble on expression in E. coli; label from the status in PepcDB or PDB records

Sequence | soluble on expression in E. coli
VLAGIDALESSGFAAVAGKRIALVTNRSGVDRLGRRTIDLLAHAPGARLVAIFAPEHGLGTDVDAPFGDAIDADTNVVVHSLYGSRRRIAPEALSNVDVLVFDIQDAGVRFFTYLATLGYVLEAAAAAHVPVVVLDRPNPLGGDVVGGPVSDADIGSFTNYYPLPLAPGMTIGELAKLFDDRLRIGADLVVVPMENYRRWMRYGDTGLGGLPPSPNLRDAAALSLYPDIGLVEGADVSVGRGTATPFGVLGAPWIDGRALADDLRAMHLSATFTPARFVPTEGPYRGALCEGVRIERLPGPVRPGRIGLAVALALHRRYPDRFRIDAIRASVGSRAVADMLADGRPLDEIEQVVDTQNAAFSRERAAYLLY | not soluble
MGSDKIHHHHHHMNIKHLDVLRTLLATGSTIAAAKAMGLSQSGVSRMLQQLESDLAITLFARDKGRLIPTPEATVLGRDAQNVLLAIERMSGHAEDLRNGSAGPEIVRIGLPSSMWENFAPAMLIDYVRDFPGVRIETFFETTTAITKLVEERVIDLGFLRIEGETGPGIAIDKVASGESVCVVPKDHSLAELPEITVKHLRNVPLILIGRQRPNRMALDQAFQRAGVKQMVKIETHTNSSACSYVAHGLGVSIISSFYANLYRHLPVVYRPFVPRATQEFGLVRAAGVPLSIAAQALSDALKKQIRLSQEEQ | not soluble
MASNEVLVLRGTLEGHNGWVTSLATSAGQPNLLLSASRDKTLISWKLTGDDQKFGVPVRSFKGHSHIVQDCTLTADGAYALSASWDKTLRLWDVATGETYQRFVGHKSDVMSVDIDKKASMIISGSRDKTIKVWTIKGQCLATLLGHNDWVSQVRVVPNEKADDDSVTIISAGNDKMVKAWNLNQFQIEADFIGHNSNINTLTASPDGTLIASAGKDGEIMLWNLAAKKAMYTLSAQDEVFSLAFSPNRYWLAAATATGIKVFSLDPQYLVDDLRPEFAGYSKAAEPHAVSLAWSADGQTLFAGYTDNVIRVWQVMTAN | soluble
MVRRLTSPRLEFEAAAIYEYPEHLHSFLNDLPTRPGVYLFHGESDTMPLYIGKSVNIRSRVLSHLRTPDEAAMLRQSRRISWICTAGEIGALLLEARLIKEQQPLFNKRLRRNRQLCALQLNEKRVDVVYAKEVDFSRAPNLFGLFANRRAALQALQSIADEQKLCYGLLGLEPLSRGRACFRSALKRCAGACCGKESHEEHALRLRQSLERLRVVCWPWQGAVALKEQHPEMTQYHIIQNWLWLGAVNSLEEATTLIRTPAGFDHDGYKILCKPLLSGNYEITELDPANDQRAS | not soluble
GSDALVGRLVKSSWDMKSLDLHSMLVETMSKSDHVLIVGFGRGGQTVGRVLAQEDIPYFALDLDIARVQVARSAGEPVSFGDAKRREVLEAAGLGRAKMVVVTLNNMHETQHVLDNVLSMYPNMPVYVRATNDDYVKTFTDIGAEEAVSDTKETGLVLAGYAMLGNGASYRHVYQTMANIRHSRYAALEGLFVGSDDEAGFGENGETVRHAFPLAAEAYAVGKTVGTLPMAAYGIKLLFVRRRTGRIENPDASFTLEGGDVLVVAGKKEEIISFENWSLQGI | not soluble
MSVFAFSFCAVVIMPNLLAMSDEETRGRQAMVANFVKDNQKTIRNGKGDKWMSNFLKTQNLTFHRSLSSPSAMSDSSSQNLVVLADVGTAACASGWTRYDLTGMCYQQSKKTMNWYQGEDYCWNLRPGAHSASVHSQEEAKWLNSLYRDKKNGGQMDSWIGLRRDCDNVTYIWTDGSPTDCLWWQPDYPKSEFAEFSCVTIWETDWLYDNPAYIPGQYDDMKECSDDGSNTPTTTTTMQTTTPSTTSTPTTTSTTTTTSASTTTISTTKPPTTQIDIEKCTSNCPVGWIYFGGLCYSKIQGPGRFVDFNSECTRLGGKLGEVSGADGNEALRLALTSNNGNKILDEAWIQHIGSYNNVASGYVGTAGSCYTVLKNSQTN | not soluble
MNGRRWMVLAAVVGVSTLSACASQGHDSDETLPTYTPPAWMAEVRAQNEEYANAGVACLAAHGVEGTADNGTFGISYGPQSQGALTHMTDEEADALLTECSESLSLPDYVNNSADEEYDRVLDLRECVIAQGYDMPDAPSREVWTEQWERTRDAWVPYYHEMTLDPDGLERHKVTVEEMNRLQSICVPSTVGATTVSR | not soluble
MISKGFSTQTERINILKAQILNAKPCVESERAILITESFKQTEGQPAILRRALALKHILENIPITIRDQELIVGSLTKEPRSSQVFPEFSNKWLQDELDRLNKRTGDAFQISEESKEKLKDVFEYWNGKTTSELATSYMTEETREAVNCDVFTVGNYYYNGVGHVSVDYGKVLRVGFNGIINEAKEQLEKNRSIDPDFIKKEKFLNSVIISCEAAITYVNRYAKKAKEIADNTSDAKRKAELNEIAKICSKVSGEGAKSFYEACQLFWFIHAIINIESNGHSISPARFDQYMYPYYENDKNITDKFAQELIDCIWIKLNDINKVRDEISTKHFGGYPMYQNLIVGGQNSEGKDATNKVSYMALEAAVHVKLPQPSLSVRIWNKTPDEFLLRAAELTREGLGLPAYYNDEVIIPALVSRGLTLEDARDYGIIGCVEPQKPGKTEGWHDSAFFNLARIVELTINSGFDKNKQIGPKTQNFEEMKSFDEFMKAYKAQMEYFVKHMCCADNCIDIAHAERAPLPFLSSMVDNCIGKGKSLQDGGAEYNFSGPQGVGVANIGDSLVAVKKIVFDENKITPSELKKTLNNDFKNSEEIQALLKNAPKFGNDIDEVDNLAREGALVYCREVNKYTNPRGGNFQPGLYPSSINVYFGSLTGATPDGRKSGQPLADGVSPSRGCDVSGPTAACNSVSKLDHFIASNGTLFNQKFHPSALKGDNGLMNLSSLIRSYFDQKGFHVQFNVIDKKILLAAQKNPEKYQDLIVRVAGYSAQFISLDKSIQNDIIARTEHVM | soluble
MGSDKIHHHHHHMAIAIDFGTSNTVIARWNPVTQQPETITLPGLSIQQSLNPPLIPSLVYVEDANQAKILIGQQVRDRGLDLKGDTRFFRSFKRGIGADIQGFLPELDGQIVTFEQVGQWFLTEVIQQLAPLEGGLDSLVLTVPVDSFEAYRYWLGQVCQALPVEQVRMLDEPTAAALGYGLADQEILLVVDFGGGTLDLSLVQLNKSAQTNTKPVGFLLKWGNKSLAEESKQKTKTARVLAKAGQNLGGTDIDNWLVDYFTKTQGLAVSPLTTRLAERIKIQLSTQNQASEVYFDDENFESYELELNRDTLESILKEHSFFEQLDDAMANLLQQARRQGIELADINAVLLVGGTVQLPAVQTWVKQYFQPDKIRCEKPFEAIAQGALQLSQGVEIKDFLYHSYGVRYWDRRNQRHSWHSIIKAGQGYPMTQPVELVLGASLENQPSIELILGELGTETGGTEVYFDGDRLITRRLDTGVTSVKPLNDKEGARTIAQLTPPGFPGSDRIKILFQVDEQRFLRITVEDLLTNDTLLENQLVAQLS | not soluble
MMIMNNFDEKKLIQEFSKIQSELSPRIKLENNFQIEEIQFIAGVDLAYWNVNKTKYGTCCIVIIDYGTKEVVEKVYSYGEIPIPYIPGFLAFRELPLIIEAVKKLTKQPDIYFFDGNGYLHYRHMGIATHASFLLNKPTIGVAKSYLKIRDVDFIMPENLKGSYTDIVINNEVYGRTLRTTKNVKPIFVSCGNWIDLDTSTEIVMNCINNESRLPIPVRLADLETHKMRKKLMEGLEHHHHHH | not soluble
MAMIKVDQHYFELIENYRECFNEEQFIARYSDILDKYDYIVGDYGYDQLRLKGFYKDSNKKAEMSKRFSNIQDYIFEYCNFGCPYFVLRHLSKQEVKKLIEEVHPSDVIDDDNKLQDVKIKPTIQDTEHLEHHHHHH | soluble
MGATMKPSNKESVQDTVARLRENRNQQQSKVGKNATHSSKEQTPLDTPTRSKASKNAKAVSAAERKTEANKIIKHLLLGELTQGQALKSLRINILGLKQDVFARLVDVSRKTLSDIENDRGSYNTEILNKVFKPFSLKIGLLPSSPDALKSLLMDGEDG | soluble
GAVDLNKENRDPKYVESIVNRSQKIVDKLGLTDAKVAEDVCNVIANRYFELNDIYEIRDAKVKAVKESGLTGDAKNEALKAAENEKDAALYRSHFAFPASLSLFLNEEQIEAVKDGMTYGVVKVTYEATLDMIPSLKEEEKVQIYAWLVEAREFAMDAENSNKKHAAFGKYKGRINNYLAKRGYNLTKEREEWAKRVKARGGTL | soluble
SADISLDELIRKRGAAAKGRLNARPGVGGVRSRVGIQQGLLSQSTRTATFQQRFDARQKIGLSDARLKLGVKDAREKLLQKDARFRIKGKVQDAREMLNSRKQQTTVPQKPRQVADAREKISLKRSSPAAFINPPIGTVTPALKLTKTIQNLYDLDEDDDGIASVPTKQMKFAASGGFLHHMAGLSSSKLSMSKALPLTKVVQNDAYTAPALPSSIRTKALPVLTSPGT | soluble
MPAPEAPTSTLPPERPLTNLQQQIQQLVSRQPNLTAGLYFFNLDSGASLNVGGDQVFPAASTIKFPILVAFFKAVDEGRVTLQERLTMRPDLIAPEAGTLQYQKPNSQYAALEVAELMITISDNTATNMIIDRLGGAAELNQQFQEWGLENTVINNPLPDMKGTNTTSPRDLATLMLKIGQGEILSPRSRDRLLDIMRRTVTNTLLPAGLGKGATIAHKTGDIGIVVGDAGMVDMPNGQRYVAAMMVKRPYNDPRGSELIRQVSRMVYQAFEKLSPPEQKLISEEDLNSAVDHHHHHH | soluble
IDPFTADAGHTEFTDEVYQNESRYPGGDWKPAEDTYTDANGDKAASPSELTCPPGWEWEDDAWSYDINRAVDEKGWEYGITIPPDHKPKSWVAAEKMYHTHRRRRLVRKRKKDLTQTASSTAR | soluble
MEAAHFFEGTEKLLEVWFSRQQPDANQGSGDLRTIPRSEWDILLKDVQCSIISVTKTDKQEAYVLSEASMFVSKRRFILKTCGTTLLLKALVPLLKLARDYSGFDSIQSFFYSRKNFMKPSHQGYPHRNFQEEIEFLNAIFPNGAAYCMGRMNSDCWYLYTLDFPESRVISQPDQTLEILMSELDPAVMDQFYMKDGVTAKDVTRESGIRDLIPGSVIDATMFNPCGYSMNGMKSDGTYWTIHITPEPEFSYVSFETNLSQTSYDDLIRKVVEVFKPGKFVTTLFVNQSSKCRTVLASPQKIEGFKRLDCQSAMFNDYNFVFTSFAKKQQQQQSHICRSQMVTSQQTSSVVRQT | soluble
MGSDKIHHHHHHMENAPEPIETVKKGKCKVECQNKERFILIEKENGKAMYHTKIMMDIYKFGVYEKKHEFRLSLRALFNGERIVEETHLYPIKEGDKFIGIFYGYRKPIKKPLIKYQINGTKKAYALARAYYMEFRFKAGSVFCYFKGLYRLLDKKRTNNHYNKVLFSMFTDLEQQVYKFYGKKYPEQGPLIKWILKNLK | not soluble
MNILLFGKTGQVGWELQRSLAPVGNLIALDVHSKEFCGDFSNPKGVAETVRKLRPDVIVNAAAHTAVDKAESEPELAQLLNATSVEAIAKAANETGAWVVHYSTDYVFPGTGDIPWQETDATSPLNVYGKTKLAGEKALQDNCPKHLIFRTSWVYAGKGNNFAKTMLRLAKERQTLSVINDQYGAPTGAELLADCTAHAIRVALNKPEVAGLYHLVAGGTTTWHDYAALVFDEARKAGITLALTELNAVPTSAYPTPASRPGNSRLNTEKFQRNFDLILPQWELGVKRMLTEMFTTTTI | soluble
MGSDKIHHHHHHMIVLIGGEKGGSGKSCLAQNIAVFLTTECGASVIMVDCDPQRTTSDWIQARNNNPKLASINCVQLYGKIRNDLLSLEQHYDFVIVDCGGQDNLALRATMSVASHILMPLRPKRRDLKTVSHMDDIVATCKMINPKLHASFVITQCPNLPNQANRILEAKEICKTYDINVLDSITYSRNIYDDSEESGLSVLEIEPKGKAAAEIRAIACEMFQVDCAASLTALLKPSTSIAGHHSQINQNQSNHLRGQYGTQRPQEKRYAI | not soluble
